We go through 6 molecules from patent US20240026407A1, “MODIFICATION OF SAPONINS” (GLAXOSMITHKLINE BIOLOGICALS SA, priority 2020, published 2024).

Bounds are passed on as bounds.

To fix the notation:
B1: 247 (protein, listed as Arthrobotrys oligospora)
chain: MDATTLKEIEETLAQLTLEEKISLLAGKDFWRTVPLPEKQIPSIKVSDGPSGARGDTFSGGQKAAFFPSGILMGATFNPELAYETGELLSEEVRAKSASVLLAPTACCHRSPLGGRNFESYSEDPLLSGKMASGYIRGVQSRGIAATMKHFVANEQETWRLYVDETIDETTLREIYLKPFEIAMREGQPWAIMTAYNIINGVHCDSHPLTLKQVLRGEWNYEGLVMSDWFGCNSMVESLLAGLDLEMPGPARKRPIKEFVEAAEKDESVRKAIDDSARRILTLIAKVGKWKDMTPEAPEYSRNDPETGKLIRRAGGEGTVLLKNEGKTLPLQPGSLKKVAFIGPNAKATVAGGGGSANLEPNYLTQPYETFVTAIKEINGDIEVPWVQGCIIDRWVPNIDVEGGFCRVGGPDSEAGLFLEWFRGYEATGEPVATTVFKTSNAFLWDSRPTSISPSEEFSVRFSGQISVPEDGKYNISLSTITASKLYLNGELLIDNWDFKERGNLMMNVGSEEVVKTIELKKGEWYPILVHNSSIWPKDSPRDPPMEEIGALGIRLGVAPVYDNAVLIAEAADAVKDADAVVIVVGLNNEWESESYDRSDTKLPNNQDDLIEEIAKVNQNVIVVNQSGAPVDMPWAENSNVKAIVQAWYAGQEAGHVIADVLLGKQNPSGKLPLTFPIKVQDNPSYLYFPGRDQKVEYTEKLMVGYRYYDTENVQTRFPFGYGLSYSTFSIGEPSLSTAELTEGQTFTANVDVSNTSNVAGAEVVQLYVKRPASTSSIKRPVKELKGFKKVHLGTGETATANITVDDKSLGIWSTEAGKWVVEAGDYEVLIGTSSVQDELKPAGKITVKAAWSWI
B2: 101 (protein, listed as Meira miltonrushii)
chain: MSAPIDPQALLAQLTLEEKIQLTAGADLWRTVAIERLKIPYIKLTDGPIGARGGGDFHDSTPSTLFPSPSCLGSTWDTKLAYEMGKQIALDGIEKQCHVILGPTINGQRDPRAGRFFESYSEDPTLMGFLASHWVQGVQSCGVGATMKHFVANEAEYDRRNNSSDVSIEALREVYLEPFRIIMADMQRKASAHDDPFKFQPACVMTAYNRVNGVSSSENDAMITDILRKEWGFDGLVMSDWFAMHANAFNATDLEMPGPTIFRTIEKTIDTIKKGDEEGKKMAKDLDRCVLKVLELVKKVHKLGYQKSVADEVEKSVPIEQVGPAIRKIGAEGAVLLKNDNDILPIIPKKDLKILCVGAPWIEAVQSGGGSANLTPQKVMQPLSTFKDALKNEKGGQDVTVNHHNGIGIHNFVKPLEQSIKLDFLTGRQPGKGEVVASTTGQKATLSTMLPKPKEVPWNDYWVRGSLDLEPVKKDCQLRFGLLGLGTITAYLTIDGDKSKQSIWNFDGETDLFESIVNPLRNWQENVITVKAGQKIQIEAHFVPRLVGKEHGDAKYGGFQIGMEEVDDEDALIAEAVQQAKEADLTVIMTAVGKDWESEGFDRPTIFLPRRQDDLVNQVTKACPGKTVILNLTGSVVEMPWRNDATGIVQCWYGGQEGAVSLSDILLGRGDAPASGRLAHVWPARIEDHPSGVDEAYFPGTHLPNDKEGPHTEYVEGRLVGYKYYNKNKNANQPAFHFGEGLGGYTTFATEGPVVKGSTKINKSSLPLSLTVKSTNKGKRSGKEVAQIYLRPHVPLSDAKDEPIQRLAGFAILRPAPGQSEEAEIQLYQETFSHWDEKSRSWQVKQGDYDLVLARSARYGEELGKATITIDQSWSWTGTGVN
B3: 208 (protein, listed as Anaerolinea thermophila)
chain: MNVHNQDTIEQKISELLSQMTLSEKVSLLSGKDAWRTMPIPRLGIPSITMTDGPHGVRSSYPEAGRKAGPTTCFPTGVSMAATWNTALIEKVGMALAEETRAMDCDILLGPCVNIVRHPLAGRNFESYSEDPYLNGKMGVAWVKGLQSKKVGASLKHFAANNQEFERHRGSSELDERTLREIYLPHFEMVVKEAKPFTVMCAYNRINGVYASQNRHLLREILKEEWGFDGVVVSDWGANHTIFESVENGLDLEMPGPARYYGKLLEDAVHNWQIDEKVIDDAVRRILRILFRAGKFDDPATLPPGSVNTPEHQALALEVAEEAITLLKNEADLLPLDIEKIRTLAVIGPNAAEDRIGGGGSSYVDPPYRVSPLEALRARFGDKIQIEYEKGCDNYHQPPVLGADWLGVNGLKVDFFDNPALQGQPAGTISIPKAEMWMWANSLPASKITSPRFSLRASGSFTPLESGNFTFFLVNTSTCRVFINGNKVFENTSKPKEHRAESEVQFQTTLEEGKSYDLVIEYLKDNDEEFAFWKLACMRVFGPGEDNRIQKAAELAAKSDVALVFIGMPEGFESEGYDRPDMRLPGPQDELVRAVLKANPRTVVILNAGSPVEMPWAEDVPAILEAYYPGQEGGNAVAKILFGEINPSGKLTVTFPRRLEDTPAYINYPGDRKVYYGEGIFVGYRYYEKKKVSPLFPFGHGLSYTTFEYENLTLPSEVNIGESVKVQVTVKNTGKRAGKEVVQLYVGDPESSLVRPPKELKGFAKVELQPGESKTVSFELDERAFAFYDPYQSRWVVEPGEFQILVGSSSQDIRASAVLRMA
B4: 207 (protein, listed as Bifidobacterium dentium)
chain: MSESTYPEVNDLTLEEKASLTSGGDAWHLQGVEAKGIPGYMITDGPHGLRKSLASSTGETDLNDSVPATCFPPAAGLSSSWNPELIHQVGEAMAEECIQEKVAVILGPGVNIKRNPLGGRCFEYWSEDPYLAGHEAIGIVAGVQSKGIGTSLKHFAANNQETDRLRVSANISQRALREIYFPAFEHIVKEAQPWTIMCSYNRINGVHSAQNHWLLTDVLRDEWGFEGIVMSDWGADHDRVASLNAGLNLEMPPSYTDDQIVYAARDGRIQPEQLDRMAQGMIDLVNKTRAAMSVEGYRFDVDAHDEVAHQAAVESMVLLKNDDAILPVASDAKVAVIGEFARTPRYQGGGSSHITPTKMTSFLDTLAARGVDAKFAPGFTLDLEPADAAMAADAVEVAKGADVVLMFLGLPEAAESEGFDRETLDIPAKQVELLEAVAAENKNIVVVLSNGSVVSVAPWADNAKGILESWLLGQAGGPALADVIFGNVSPSGKLAQTVPMDINDDPSMINWPGEEGHVDYGEGVFVGYRYYDTYDKAVDYPFGYGLSYATFEVSDVKVAKTGANTASVSAVVKNTSDVDAAETVQVYVAPGKSAVARPIHELKGFRKVFLKAGESAEVSFDLDERAFAYWSEKFDDWHVESGEYAIEVGTSSRDIAGTGVVELDGDGKAEPLTEWSTFGEWSDDPVGSKIVASVYAEGEAGNLPKMPDNDMMRMFLRSMPINSMPMLMSEGGKKITAFMLDEYAKVTE
B5: 169 (protein, listed as Bifiguratus adelaidae)
chain: MASSRVTELLANLTLEEKVYLLSGSDNWRTFPVPRLGIPAVKVTDGPIGARGDSFNTGQNAACFPAPIAMASTWDTDLLLKVGSALGEEAKSKAAQVLLAPTINMHRSPLNGRNFECYSEDPFLTGKMATAFVSGLQSQGVAAAVKHFACNDSEFERDSISSEITERPFREIYLRPFEMVVRDADPWCIMTSYNKINGVFASENPKLLKEILRNEWNWKGMVMSDWFGVKSTVPSVLNGNDLEMPGPPAWRGEKLLAAIKQGELKEEDLNESVQRVLSFVERVGKFEDPEERPETYLAKPEITELIRNVSADSIILVKNEQSLPLNKDALKSVAIIGPNAKTAVTMGGGSSKVQAPHEVTPYEGIAAALGEDVDIRHSVGAYTHKLIPQLDDRLQTPDGELGYIMDVYESKNFGETPTDSKVLNNTRVIIHDAGFKDVDFRSFSAKVRARYTAKHTGPHTFGIASVGLSKLYVDGKLVIDNWTSQVRGDIFFGFGSREEKAQYDMIEGQTYEILIDYMTGHELMAMLRFGLLEPLASDVVEQAVKVAEGTDVAVVVVGLNNEWETEGYDKTELELPGGQNELIEAVANVNKNTIVVVQCGSPVVMPWIDKVSGVIVAWYGGQETGHSIADVLFGKVNPSGRLTQTFPKRLEDNPAFDNYPGENGKVIYGEGLFIGYRYYQRRKVDVFLPFGFGLSYTTFDYGNIKLDNSELDPQAHITVSVDVTNTGSIAGKEVVQVYVHDNHPRLSRPLAELKGFSKVELAPGETRTVQITLDKHAVAFYDDKEAVWVAEAGEFELHIGSSSADIRGKVPFTVTKSLSWTF
B6: 250 (protein, listed as Modestobacter marinus)
chain: MTATTPSDPTALPLEQKVRLLSGQDFWSTPAVAEAGLSSVVLTDGPHGVRRQQGEFDQIGLLESVPATCFPPAVAVGSSWDPEVAERIGAAVGVEARAIGVPVVLGPGVNIKRSPLCGRNFEYYSEDPLLAGVLGAAHVRGQQGEGVGASVKHFAANNQETQRMQVSADVDERTLREVYLPAFERVVTESRPATVMCAYNKVNGVYASQHRWLLTEVLREEWGFRGAVVSDWGAVDDRVAALEAGLDLQMPGDSGAGNALVVEAVRAGVLDEAVVDRSVRRVAALAGLVAEPTAGFDVEAHHALARELAAGCAVLLKNDGGTLPLTAGTRITVVGEFARTPRFQGGGSSHVNATRVDDALTALQGAVEVTFAPGFTLDGSGDAAALREEAVAAARGAEVTVVFAGLAEADESEGFDRTTLDLPAGQVDLIRAVAAVSLRTVVVLSSGSVVSLEGWHDDVDAVLAGFLLGQAGGGALADLLTGAVDPSGRLAETIPLRLQDTPSYLTFPGEQGHARYGEGVMVGYRHYETAEQPVRYPFGHGLSYTSFATTDLQVRTRGADGATATVTVTNTGERAGRHVVQVYVATAAGPVRRPARELRAFTKVSLAAGESATVAFELDRRAFAYWDVREHDWVVAPGEYSVQIGASAADVLDQRTVTLAGDDLVPELTLQSSVAEWFAHPVAGPQLLAGFVAAMPDGAAEMHEGMLQMIGSMPMRRFAADFGSAVPAAELDRLMAAARAAR

The first assay is described as follows: Experiment 4-4: screening of glucosidases for deglycosylation of QS-18 in crude bark extract (1 in 20 dilution) to QS-21. As to conditions: CBE 1 in 20 dilution, pH 6, 25 degC, 18 hours; % conversion of Middle Peak by UV HPLC. The assay is classed as biochemical, Quillaja saponaria. The method, boiled down: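 Clarified glucosidase lysates were incubated with pH 6 crude bark extract (1 in 20) in potassium phosphate buffer pH 6 for 18 h at 25 °C with shaking, then quenched with MeCN. UV HPLC with MS/MS-supported peak identity; activity is % conversion of the extract's Middle Peak (QS-18 family) toward the QS-21 peak.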
With B1, the “Expt 4-4 % conv” value is <3%.

With B2, the “Expt 4-4 % conv” value was <3%.

As for B3, the “Expt 4-4 % conv” value is on record as <3%.

In the case of B4, the “Expt 4-4 % conv” value is on record as <3%.

Take B5: the “Expt 4-4 % conv” value is listed as <3%.

For B6, the “Expt 4-4 % conv” value was <3%.

Another assay is described as follows: Experiment 4-3: screening of glucosidases for deglycosylation with QS-18 in crude bark extract (1 in 2000 dilution) at pH 7 and 30 deg C. It counts as biochemical, Quillaja saponaria. As to conditions: CBE 1 in 2000 dilution, pH 7, 30 degC, 1 h; % conversion of QS-18 by LCMS/MS.
For B1, the “Expt 4-3 % conv” value is recorded as 2.7%.

For B2, the “Expt 4-3 % conv” value is listed as 1.8%.

For B3, the “Expt 4-3 % conv” value is 26.0%.

For the molecule B4, the “Expt 4-3 % conv” value came to 0.2%.

As for B5, the “Expt 4-3 % conv” value came out at 2.4%.

Take B6: the “Expt 4-3 % conv” value was determined as 2.6%.

Another assay in a line: Experiment 4-1: screening of glucosidases for deglycosylation with purified QS-18 (0.04 mg/ml) at pH 7.5 and room temperature. The assay is classed as biochemical, Quillaja saponaria. As to conditions: pH 7.5, room temperature, 20 h, clarified E. coli lysate, QS-18 2150 to QS-21 1988 by LCMS/MS. The method in brief: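 Candidate glucosidases expressed in E. coli BL21(DE3) (pET24b+, autoinduction, 20 °C for 20 h); clarified lysates in 100 mM potassium phosphate pH 7.5 incubated with QS-18 (0.04 mg/ml final) 20 h at room temperature. Quenched with MeCN, analysed by LC-MS/MS for % conversion; hits >3 S.D. above negative control.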
Regarding B1, the “Expt 4-1 % conv” value came to 18.0%.

Turning to B2, the “Expt 4-1 % conv” value was determined as 28.2%.

With B3, the “Expt 4-1 % conv” value worked out at 100.0%.

Turning to B4, the “Expt 4-1 % conv” value is given as 27.4%.

As for B5, the “Expt 4-1 % conv” value was found to be 19.8%.

Consider B6, for which the “Expt 4-1 % conv” value came out at 88.5%.

The nature of another assay: Experiment 4-2: screening of glucosidases for deglycosylation with purified QS-18 (1 mg/ml) at pH 6 and 30 deg C. It counts as biochemical, Quillaja saponaria. As to conditions: pH 6, 30 degC, 18 hrs, clarified lysate, LCMS/MS. The method, boiled down:
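Clarified lysates of glucosidase-expressing cells in 100 mM potassium phosphate pH 6 were incubated 18 h at 30 °C with QS-18 at 1 mg/ml final. Reactions quenched with MeCN; deglycosylation activity determined by LC-MS/MS.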
With B1, the “Expt 4-2 % conv” value was 2.0%.

As to B2, the “Expt 4-2 % conv” value is recorded as 1.0%.

With B3, the “Expt 4-2 % conv” value is on record as 94.0%.

Consider B4, for which the “Expt 4-2 % conv” value is recorded as 4.4%.

As for B5, the “Expt 4-2 % conv” value is on record as 2.1%.

With B6, the “Expt 4-2 % conv” value was determined as 36.0%.
